± gives the standard deviation of the averaged measurements.
System: ATP
Assay: switch fluorescence ratio, 500 uM ATP over buffer (Cy3 cluster intensity, sum of 5 cycles each) (fold (ratio)); higher = stronger signal-on switching upon ATP binding; sequences stand for … in TCGTCGGCAGCGTCAGATGTGTATAAGAGACAGTTTTTTTTTTTTTTTTTTTTTTTTT…TC
Conditions: aptamer strand: ATP DNA aptamer (quencher-CACCTGGGGGAGTATTGCGGAGGAAGG + anchor), 100 nM annealed; ATP concentration: 500 uM
Outline: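 The fluorescence ratio divides summed target-cycle Cy3 intensity by summed buffer-cycle Cy3 intensity for each cluster and is averaged per switch-domain sequence. Cy3-labelled switching-strand clusters on a modified Illumina MiSeq flow-cell were annealed to 100 nM quencher-labelled ATP aptamer, then imaged in selection buffer and again after 15 min with 500 uM ATP at 22 °C. Five such cycles were run, with NaOH stripping and re-annealing between them, and clusters outside 100-1000 RFU were excluded.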
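Further: ATP exposure 15 min at 22 °C before imaging.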

| Sequence | switch fluorescence ratio |
| --- | --- |
| ATGGAGCTTG | 0.983 ± 0.02 |
| TCATCTTAAT | 0.992 ± 0.044 |
| ATGGACGCCT | 1.01 ± 0.037 |
| TTGAGGCAGG | 1.027 ± 0.0065 |
| GATATTGGTT | 1.02 ± 0.025 |
| TTTATGGGTA | 1 ± 0.033 |
| TGAAAGTATT | 1 ± 0.022 |
| AGGGTTGTTA | 0.982 ± 0.027 |
| TAAGCTGCGT | 0.989 ± 0.03 |
| TCAGATAAAT | 1.27 ± 0.35 |
| GGCGGCGGGA | 0.998 ± 0.027 |
| CTGTAAGCGG | 1.03 ± 0.03 |
| TGGCGCTGGG | 0.978 ± 0.022 |
| TGGGTAATCA | 0.981 ± 0.036 |
| GTTGTGATAG | 1.01 ± 0.021 |
| CCAGAGGTAA | 1.04 ± 0.027 |
| TTTTTAAGCA | 1.02 ± 0.034 |
| TTAAAGAGCG | 0.989 ± 0.04 |
| ATCCTGCTTT | 1.01 ± 0.069 |
| GAGAAGGGAG | 0.9895 ± 0.0055 |
| CGGTTAGGCG | 1.06 ± 0.012 |
| TGCCACTCTG | 1.025 ± 0.008 |
| CAGTTCGTGT | 1.02 ± 0.022 |

| Sequence | switch fluorescence ratio |
| --- | --- |
| TATGTGTAAC | 0.978 ± 0.02 |
| GCATATCGGG | 1.02 ± 0.017 |
| GGGCAAGAGC | 1.04 ± 0.063 |
| TGGAATACG | 1.35 ± 0.036 |
| ATCGGCAGTT | 1 ± 0.015 |
| GGGGGACAGA | 0.969 ± 0.013 |
| GAGCTTACGG | 1.064 ± 0.01 |
| GAAGATTTGG | 0.981 ± 0.04 |
| CGGGGGGTAG | 0.995 ± 0.035 |
| GGTTACTGAG | 0.98 ± 0.018 |
| GCTCTTGTCT | 0.985 ± 0.061 |
| TAACGCATG | 1.13 ± 0.082 |
| TTATTGGTTT | 1.048 ± 0.0096 |
| AATTTTTACT | 1.05 ± 0.1 |
| TATAATTAGG | 0.98 ± 0.027 |
| CCGTCATTGT | 1.11 ± 0.02 |
| GAAGTAATAG | 4.39 ± 0.18 |
| GGATGCAGTT | 0.99 ± 0.026 |
| TCCACGATTA | 1.108 ± 0.011 |
| CGGGGTAGTC | 0.967 ± 0.07 |
| CGAGAGCCAC | 1.13 ± 0.047 |
| CAGGATGCAT | 1.01 ± 0.02 |
| TGGACTTAGG | 0.987 ± 0.03 |

| Sequence | switch fluorescence ratio |
| --- | --- |
| TGGGGTAAAG | 1.01 ± 0.033 |
| AACAGTGAGC | 1.039 ± 0.0056 |
| AGGAATGCAA | 1.09 ± 0.017 |
| TGGAGGAGGG | 1 ± 0.032 |
| TTAAGGGTGG | 0.991 ± 0.021 |
| TTGGGGAAG | 0.9853 ± 0.0061 |
| TGGGGGGTCC | 1.01 ± 0.039 |
| ATGCACGGGC | 1.01 ± 0.047 |
| GGGTCCTGCG | 1.04 ± 0.019 |
| TCGCGCGGAG | 1.04 ± 0.024 |
| AAGGGTTAAG | 0.9975 ± 0.006 |
| GTTGTTTTGT | 0.985 ± 0.021 |
| GGGTTTTGCG | 0.9735 ± 0.0082 |
| AGATGTTTCC | 1.04 ± 0.055 |
| TTTTCGGGCG | 0.944 ± 0.017 |
| CCGGGGGCGA | 2.64 ± 1.4 |
| TAAAAATGAG | 1.014 ± 0.0069 |
| ACGGGAGTGC | 1.03 ± 0.046 |
| GTGGGGCGTT | 1 ± 0.035 |
| ACATAGTGCT | 1.004 ± 0.0077 |
| TTCTATGGTG | 1 ± 0.04 |
| AGGCGGCTGA | 1.05 ± 0.021 |
| CCACGAATT | 1.012 ± 0.0096 |

| Sequence | switch fluorescence ratio |
| --- | --- |
| TGGGAGAGGG | 1.01 ± 0.02 |
| GTGTGAGGGT | 1.04 ± 0.053 |
| GGGGGCTGGT | 1 ± 0.0022 |
| TCCGATGGGG | 1.084 ± 0.0093 |
| CTCGTTCCGG | 0.997 ± 0.043 |
| GGTCATTTGT | 1 ± 0.041 |
| GGATTGAAGA | 0.969 ± 0.091 |
| AATTAGATAC | 1.12 ± 0.074 |
| CCCTCGCGGT | 1.78 ± 0.027 |
| GAAGCGACTC | 2.42 ± 0.03 |
| GGTGACGTGG | 1.02 ± 0.012 |
| ACTCTTATCA | 1.01 ± 0.023 |
| TTCTATGGAA | 1.01 ± 0.016 |
| GACTTTAAGC | 1.01 ± 0.032 |
| ACTTTGAGAT | 1.03 ± 0.012 |
| GCGTTTCCTC | 1.08 ± 0.033 |
| GCATGGAGTA | 1.02 ± 0.029 |
| AAATATTTCC | 1.09 ± 0.06 |
| AAGATTCTCG | 1.004 ± 0.0095 |
| GCCGGTTCTG | 1.06 ± 0.022 |
| TTATTATACG | 1.01 ± 0.054 |
| TTGGGGAA | 0.985 ± 0.025 |
| GAGGTTATAG | 0.998 ± 0.02 |

| Sequence | switch fluorescence ratio |
| --- | --- |
| GACAGTTTGT | 1.01 ± 0.033 |
| AGGGGGGATG | 0.992 ± 0.022 |
| AAAGGAAGGT | 1.01 ± 0.024 |
| ACTTGTTCAT | 1.01 ± 0.033 |
| TTTCAATGTC | 0.97 ± 0.11 |
| TATATGGTGT | 1.02 ± 0.024 |
| GAGTCAGTAT | 1.03 ± 0.039 |
| AAGATAGGGA | 0.9792 ± 0.0035 |
| TTCAAAGTTT | 0.993 ± 0.015 |
| ATCGGTGAGG | 0.971 ± 0.03 |
| TGAGGATTTG | 1.02 ± 0.011 |
| GGGGGTATTG | 0.99 ± 0.041 |
| TGACACAGGA | 1.04 ± 0.024 |
| GGATCCATTC | 0.972 ± 0.019 |
| GGCTTATGTG | 1.02 ± 0.051 |
| GGCGCTTTGT | 0.979 ± 0.02 |
| TCAGCGGGGA | 1.001 ± 0.0066 |
| CGGAGGGAGG | 0.928 ± 0.091 |
| GGTGAAGCTG | 1.05 ± 0.14 |
| TTCCTCGTTA | 1.39 ± 0.029 |
| TAAAAGATAG | 1 ± 0.019 |
| CGTTTTTGCT | 0.961 ± 0.05 |
| TTTCGTGTTG | 1.01 ± 0.017 |

| Sequence | switch fluorescence ratio |
| --- | --- |
| TGGGTATTTT | 1.01 ± 0.026 |
| GTACTTCATA | 1.03 ± 0.013 |
| GGCTTAAGGT | 1.02 ± 0.064 |
| GGCCCAGTAG | 1.14 ± 0.062 |
| ACAGGAAAAA | 0.976 ± 0.084 |
| TTATCACTGG | 1 ± 0.07 |
| GCCCTGAGCG | 1.011 ± 0.0066 |
| TTGTAAGGGG | 1.009 ± 0.0031 |
| CTATGTTATT | 1.01 ± 0.038 |
| CAAGGAATTT | 0.969 ± 0.023 |
| TTTAAGTCGT | 0.974 ± 0.025 |
| ATCATTGAA | 0.9864 ± 0.0087 |
| GCCTGAGATG | 1.03 ± 0.017 |
| CGTTGAGGTG | 1.02 ± 0.02 |
| GCCCTAGTGT | 1.13 ± 0.024 |
| AGAAAATATT | 1.004 ± 0.0076 |
| TCTTTTTGTT | 0.99 ± 0.018 |
| TGACTAAACA | 1.056 ± 0.0059 |
| CGGTTCGTTA | 0.9795 ± 0.004 |
| TTATATGTGT | 1.01 ± 0.039 |
| TTACCGTGGG | 1.05 ± 0.029 |
| GGGGCAAGGA | 0.987 ± 0.023 |
| CAGTTTAAGT | 0.993 ± 0.01 |

| Sequence | switch fluorescence ratio |
| --- | --- |
| TTTTTAGGTC | 1.1 ± 0.21 |
| TTAATGTATT | 0.995 ± 0.016 |
| CGTGCGGTAT | 0.987 ± 0.039 |
| TTTTGGAGGA | 1.02 ± 0.019 |
| ACTATCGGGT | 1.04 ± 0.028 |
| GCGGGAGATG | 1.04 ± 0.018 |
| GTGGGTACCA | 0.968 ± 0.017 |
| AGGTTTTCTA | 1.012 ± 0.0036 |
| AAATAAACA | 0.999 ± 0.023 |
| TGGTTGTTGG | 0.95 ± 0.02 |
| CTTTGATTAG | 0.9838 ± 0.0061 |
| AAAGGTTGGG | 0.992 ± 0.044 |
| TAATTATAGC | 1.05 ± 0.049 |
| CGAATTTTTG | 0.982 ± 0.018 |
| AATCTTGAGG | 1.01 ± 0.028 |
| TCGAATTTTT | 1.02 ± 0.07 |
| AATAGTTTAG | 0.9918 ± 0.0035 |
| TGGAATATTC | 1.04 ± 0.011 |
| GGCGCAATTG | 2.04 ± 0.23 |
